Experimental data reported in patent US20210122827A1 (GMAX BIOPHARM, published 2021).

Key:
human glucagon receptor [1] = biological target: T1, human glucagon receptor (human, UniProt P47871 26-477); assay: cell-based or functional assay
human glucagon receptor [2] = biological target: T1, human glucagon receptor; assay: FACS on CHO-DHFR-hGCGR cells, antibody at 500, 50 and 5 nM; control is blank CHO-DHFR- cells
Experimental: PBS containing 10 mM EDTA was used to detach the CHO-DHFR-hGCGR cells and 10⁵ cells/tube was dispensed into 1.5 mL EP tubes, and the supernatant was removed after centrifugation, The negative control sample was resuspended with a loading buffer (PBS, 2% FBS). For the positive control, 200 μL hGCGR antibody solution of specific concentrations was added to the cells and incubated at room temperature; after incubation, the cells were then centrifuged at 1500 rpm to remove the supernatant, washed with a FACS loading buffer and centrifuged again. The cells were resuspended with addition (200 μL/well) of a FITC labeled goat anti-mouse fluorescent antibody at 1:50 dilution (BD Pharmingen) and incubated at room temperature for 30 min in the dark. The supernatant was removed after centrifugation, and cells were washed with FACS loading buffer, centrifuged again, and resuspended with the loading buffer for FACS analysis.

B1: hGCGR antibody L7H7 (antibody, V domains shown)
VH: QVQLVQSGAEVKKPGASVKVSCKASGYTFTEYTMHWVRQAPGQRLEWIGGINPDNGGPSYSQKFKGRVTITRDTSASTAYMELSSLRSEDTAVYYCAEETHDYDKFAYWGQGTLVTVSS
VL: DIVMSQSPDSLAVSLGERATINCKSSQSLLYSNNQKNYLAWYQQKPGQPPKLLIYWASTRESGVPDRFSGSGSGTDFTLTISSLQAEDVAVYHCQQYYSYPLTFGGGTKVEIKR
IC50, antagonism of glucagon-activated hGCGR signaling, direct cAMP assay on CHO-DHFR- cells expressing human GCGR (human glucagon receptor [1]): 139 nM

B2: mouse ascites antibody L4H4 (antibody, V domains shown)
VH: DVQLQESGPGLVKPSQSLSLTCTVTGYSITSDYAWTWIRQFPGNKLEWMGYISFTGTTSYTPSLKSRISITRDTSKNQFFLYLNSVTAEDTATYYCVRSVIFTIDSWGQGTSVTVSS
VL: DIQMTQSPASLSASVGETVTITCRASGNIHNYLTWFQQRRGKSPQLLVYNAKALADGVPSRFSGSGSGTEYSLKINSLQPEDFGDYYCLHFWSSPLTFGAGTKLELKR
notes: Murine antibody produced from mouse ascites; also called GCGR antibody L4H4
binding result (human glucagon receptor [2]): binds
